Assay results from the supplement of paper PMC5998384.

What was measured:
HeLa Kyoto [1] = assay: solubility change mitosis vs G1/S (difference of NP-40 vs SDS log2 ratios) (log2 ratio difference); higher = more soluble in mitosis
HeLa Kyoto [2] = assay: solubility in G1/S (NP-40 vs SDS abundance) (log2 ratio); higher = more soluble; conditions: cell cycle stage: G1/S
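Throughout, for solubility change mitosis vs G1/S (difference of NP-40 vs SDS log2 ratios): synchronized HeLa Kyoto cells (double thymidine block for G1/S, nocodazole release for mitosis), protein amounts in NP-40 versus SDS lysates quantified by mass spectrometry, three biological replicates.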
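Throughout, for solubility in G1/S (NP-40 vs SDS abundance): HeLa Kyoto cells arrested at G1/S by double thymidine block, proteins quantified by TMT10plex mass spectrometry in mild NP-40 versus SDS extracts, three biological replicates.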

Sequence	solubility change mitosis (log2) (HeLa Kyoto [1])	solubility in G1/S (log2) (HeLa Kyoto [2])
MSRRTRCEDLDELHYQDTDSDVPEQRDSKCKVKWTHEEDEQLRALVRQFGQQDWKFLASHFPNRTDQQCQYRWLRVLNPDLVKGPWTKEEDQKVIELVKKYGTKQWTLIAKHLKGRLGKQCRERWHNHLNPEVKKSCWTEEEDRIICEAHKVLGNRWAEIAKMLPGRTDNAVKNHWNSTIKRKVDTGGFLSESKDCKPPVYLLLELEDKDGLQSAQPTEGQGSLLTNWPSVPPTIKEEENSEEELAAATTSKEQEPIGTDLDAVRTPEPLEEFPKREDQEGSPPETSLPYKWVVEAANLLIPAVGSSLSEALDLIESDPDAWCDLSKFDLPEEPSAEDSINNSLVQLQASHQQQVLPPRQPSALVPSVTEYRLDGHTISDLSRSSRGELIPISPSTEVGGSGIGTPPSVLKRQRKRRVALSPVTENSTSLSFLDSCNSLTPKSTPVKTLPFSPSQFLNFWNKQDTLELESPSLTSTPVCSQKVVVTTPLHRDKTPLHQKHAAFVTPDQKYSMDNTPHTPTPFKNALEKYGPLKPLPQTPHLEEDLKEVLRSEAGIELIIEDDIRPEKQKRKPGLRRSPIKKVRKSLALDIVDEDVKLMMSTLPKSLSLPTTAPSNSSSLTLSGIKEDNSLLNQGFLQAKPEKAAVAQKPRSHFTTPAPMSSAWKTVACGGTRDQLFMQEKARQLLGRLKPSHTSRTLILS [MYBL2]	-0.187	0.219
MSTTLLSAFYDVDFLCKTEKSLANLNLNNMLDKKAVGTPVAAAPSSGFAPGFLRRHSASNLHALAHPAPSPGSCSPKFPGAANGSSCGSAAAGGPTSYGTLKEPSGGGGTALLNKENKFRDRSFSENGDRSQHLLHLQQQQKGGGGSQINSTRYKTELCRPFEESGTCKYGEKCQFAHGFHELRSLTRHPKYKTELCRTFHTIGFCPYGPRCHFIHNADERRPAPSGGASGDLRAFGTRDALHLGFPREPRPKLHHSLSFSGFPSGHHQPPGGLESPLLLDSPTSRTPPPPSCSSASSCSSSASSCSSASAASTPSGAPTCCASAAAAAAAALLYGTGGAEDLLAPGAPCAACSSASCANNAFAFGPELSSLITPLAIQTHNFAAVAAAAYYRSQQQQQQQGLAPPAQPPAPPSATLPAGAAAPPSPPFSFQLPRRLSDSPVFDAPPSPPDSLSDRDSYLSGSLSSGSLSGSESPSLDPGRRLPIFSRLSISDD [ZFP36L2]	-0.261	0.322
MSYRRELEKYRDLDEDEILGALTEEELRTLENELDELDPDNALLPAGLRQKDQTTKAPTGPFKREELLDHLEKQAKEFKDREDLVPYTGEKRGKVWVPKQKPLDPVLESVTLEPELEEALANASDAELCDIAAILGMHTLMSNQQYYQALSSSSIMNKEGLNSVIKPTQYKPVPDEEPNSTDVEETLERIKNNDPKLEEVNLNNIRNIPIPTLKAYAEALKENSYVKKFSIVGTRSNDPVAYALAEMLKENKVLKTLNVESNFISGAGILRLVEALPYNTSLVEMKIDNQSQPLGNKVEMEIVSMLEKNATLLKFGYHFTQQGPRLRASNAMMNNNDLVRKRRLADLTGPIIPKCRSGV [TMOD1]	0.357	0.122
MTDPFCVGGRRLPGSSKSGPGKDGSRKEVRLPMLHDPPKMGMPVVRGGQTVPGQAPLCFDPGSPASDKTEGKKKGRPKAENQALRDIPLSLMNDWKDEFKAHSRVKCPNSGCWLEFPSIYGLKYHYQRCQGGAISDRLAFPCPFCEAAFTSKTQLEKHRIWNHMDRPLPASKPGPISRPVTISRPVGVSKPIGVSKPVTIGKPVGVSKPIGISKPVSVGRPMPVTKAIPVTRPVPVTKPVTVSRPMPVTKAMPVTKPITVTKSVPVTKPVPVTKPITVTKLVTVTKPVPVTKPVTVSRPIVVSKPVTVSRPIAISRHTPPCKMVLLTRSENKAPRATGRNSGKKRAADSLDTCPIPPKQARPENGEYGPSSMGQSSAFQLSADTSSGSLSPGSRPSGGMEALKAAGPASPPEEDPERTKHRRKQKTPKKFTGEQPSISGTFGLKGLVKAEDKARVHRSKKQEGPGPEDARKKVPAAPITVSKEAPAPVAHPAPGGPEEQWQRAIHERGEAVCPTCNVVTRKTLVGLKKHMEVCQKLQDALKCQHCRKQFKSKAGLNYHTMAEHSAKPSDAEASEGGEQEERERLRKVLKQMGRLRCPQEGCGAAFSSLMGYQYHQRRCGKPPCEVDSPSFPCTHCGKTYRSKAGHDYHVRSEHTAPPPEEPTDKSPEAEDPLGVERTPSGRVRRTSAQVAVFHLQEIAEDELARDWTKRRMKDDLVPETARLNYTRPGLPTLNPQLLEAWKNEVKEKGHVNCPNDCCEAIYSSVSGLKAHLASCSKGAHLAGKYRCLLCPKEFSSESGVKYHILKTHAENWFRTSADPPPKHRSQDSLVPKKEKKKNLAGGKKRGRKPKERTPEEPVAKLPPRRDDWPPGCRDKGARGSTGRKVGVSKAPEK [ZNF512B]	0.776	-0.767
MTEKAPEPHVEEDDDDELDSKLNYKPPPQKSLKELQEMDKDDESLIKYKKTLLGDGPVVTDPKAPNVVVTRLTLVCESAPGPITMDLTGDLEALKKETIVLKEGSEYRVKIHFKVNRDIVSGLKYVQHTYRTGVKVDKATFMVGSYGPRPEEYEFLTPVEEAPKGMLARGTYHNKSFFTDDDKQDHLSWEWNLSIKKEWTE [ARHGDIB]	-0.0572	0.0837
MTHTRRKSLPMLSSGLTGRREPLQMEDSNMEQGVEGVEPGMPESPGHLTGRRKNYPLRKRPLVPEKPKACKVLLTRLENVAGPRSADEADELPPDLPKPPSPAPSSEDPGLAQPRKRRLASLNAEALNNLLLEREDTSSLAGTRRSRAGDPHRSRDRDRATGGWSSSKKRPRLGDLGGGSRDLSPEPAPDEGPRRDGDPAPKRLASLNAAAFLKLSQERELPLRLPRAHAEVDGRSTEPPAPKAPRPKWPKVNGKNYPKAWQGASSGEAAGPPGWQGCPDEPWPSATPCGPSVQPSHQPLSKALESPLGLRPHLPLLMGGQAALKPEPGRPGEESPAPKQELHQPSFPTPQLSPLPMPGNPADYNGLCVGPELTALGSFYLYCGQEGLQCGGYSPCPMLPEGKLSPVAAPHEEGLLLAPSSVPSGTPFQHPPWGSSRYCSSEDTGVNGYSICGVLPLSVTHAGTTCGGCPYKMPFAAEGCRSLGQLEFPLPEAGHPASPAHPLLGCPVPSVPPAAEPVPHLQTPTSEPQTVARACPQSAKPPSGSKSGLRTGSSCRHTARSKAARRPSHPKQPRVQRPRPRRRRRRRTNGWVPVGAACEKAVYVLDEPEPAIRKSYQAVERHGETIRVRDTVLLKSGPRKTSTPYVAKISALWENPESGELMMSLLWYYRPEHLQGGRSPSMHEPLQNEVFASRHQDQNSVACIEEKCYVLTFAEYCRFCAMAKRRGEGLPSRKTALVPPSADYSTPPHRTVPEDTDPELVFLCRHVYDFRHGRILKNPQ [BAHD1]	0.738	-0.799
MTKKKRENLGVALEIDGLEEKLSQCRRDLEAVNSRLHSRELSPEARRSLEKEKNSLMNKASNYEKELKFLRQENRKNMLLSVAIFILLTLVYAYWTM [CCDC167]	0.231	0.839
MTPLVSRLSRLWAIMRKPRAAVGSGHRKQAASQEGRQKHAKNNSQAKPSACDGMIAECPGAPAGLARQPEEVVLQASVSSYHLFRDVAEVTAFRGSLLSWYDQEKRDLPWRRRAEDEMDLDRRAYAVWVSEVMLQQTQVATVINYYTGWMQKWPTLQDLASASLEEVNQLWAGLGYYSRGRRLQEGARKVVEELGGHMPRTAETLQQLLPGVGRYTAGAIASIAFGQATGVVDGNVARVLCRVRAIGADPSSTLVSQQLWGLAQQLVDPARPGDFNQAAMELGATVCTPQRPLCSQCPVESLCRARQRVEQEQLLASGSLSGSPDVEECAPNTGQCHLCLPPSEPWDQTLGVVNFPRKASRKPPREESSATCVLEQPGALGAQILLVQRPNSGLLAGLWEFPSVTWEPSEQLQRKALLQELQRWAGPLPATHLRHLGEVVHTFSHIKLTYQVYGLALEGQTPVTTVPPGARWLTQEEFHTAAVSTAMKKVFRVYQGQQPGTCMGSKRSQVSSPCSRKKPRMGQQVLDNFFRSHISTDAHSLNSAAQ [MUTYH]	-0.0934	0.104
MTPWLGLIVLLGSWSLGDWGAEACTCSPSHPQDAFCNSDIVIRAKVVGKKLVKEGPFGTLVYTIKQMKMYRGFTKMPHVQYIHTEASESLCGLKLEVNKYQYLLTGRVYDGKMYTGLCNFVERWDQLTLSQRKGLNYRYHLGCNCKIKSCYYLPCFVTSKNECLWTDMLSNFGYPGYQSKHYACIRQKGGYCSWYRGWAPPDKSIINATDP [TIMP3]	-0.0173	-0.478
